Our source for the pKa values is article PMC10679507.

Among the targets are Asp250 (UniProt position 250, TYTIADVSSKV); Glu10 (UniProt position 10, GNATFENYIGL); Asp115 (UniProt position 115, LNWLIDVPMLL).
What all share (assay): UV-vis
Conditions in all cases: room temperature; 0.4 M NaCl; 6-mix buffer (citric acid 5.48 mM; ADA 1.84 mM; MOPS 4.16 mM; TAPS 5.00 mM; CHES 3.24 mM; CAPS 5.56 mM); dark (unphotolyzed) state, lipid-reconstituted

In general, pKa refers to the pH at which an ionisable group is half protonated.

Consider “Sodium pump rhodopsin IaNaR D115N (Indibacter alkaliphilus; D115N)”, for which the figures for the pKa with Asp250 and in the series with Glu10 were 2.5 and 4.6, respectively.

Take “Sodium pump rhodopsin IaNaR E10Q/E159Q/R242Q (Indibacter alkaliphilus; E10Q;E159Q;R242Q)”: the pKa with Asp115 came out at 7.1; in the series with Asp250, 3.6.

Take “Sodium pump rhodopsin IaNaR D250N (Indibacter alkaliphilus; D250N)”: the pKa came to 5.0 in the series with Asp115 and 2.8 with Glu10.

Turning to “Sodium pump rhodopsin IaNaR H225A (Indibacter alkaliphilus; H225A)”, the pKa stood at 5.8 with Asp115, 3.0 with Asp250 and 4.3 with Glu10.

“Sodium pump rhodopsin IaNaR E159A (Indibacter alkaliphilus; E159A)”: the pKa came out at 5.6 with Asp115 and 3.3 in the series with Asp250.

In the case of “Sodium pump rhodopsin IaNaR (Indibacter alkaliphilus)”, the pKa with Asp115 came to 5.5; in the series with Asp250, 3.2; in the series with Glu10 it was 4.1.

Turning to “Sodium pump rhodopsin IaNaR R242Q (Indibacter alkaliphilus; R242Q)”, the pKa in the series with Asp115 is recorded as 6.4; in the series with Glu10, 4.4.

For the substance “Sodium pump rhodopsin IaNaR E159Q (Indibacter alkaliphilus; E159Q)”, the pKa with Asp250 was found to be 3.1; with Glu10 it was 3.7.

As for “Sodium pump rhodopsin IaNaR E10Q/R242Q (Indibacter alkaliphilus; E10Q;R242Q)”, the pKa is recorded as 5.7 with Asp115 and 3.8 with Asp250.
